From patent publication US20240254204A1
Where two headings read alike, the source gives them in different places.

Experiments:
[1] = biological target: SARS-CoV-1 RBD (SARS-CoV); assay: ELISA, 100 ng coated RBD, anti-human IgG-HRP
[2] = biological target: SARS-CoV-2 RBD (SARS-CoV-2); assay: ELISA, 100 ng coated RBD, anti-human IgG-HRP
[3] = biological target: SARS-CoV-1 RBD (SARS-CoV); assay: sVNT, cPass kit format with SARS-CoV-1 RBD-HRP; also: test concentration or dose not given here
[4] = biological target: SARS-CoV-2 RBD (SARS-CoV-2); assay: sVNT, cPass kit with SARS-CoV-2 RBD-HRP; also: test concentration or dose not given here
SARS-CoV-2 Gamma [5] = biological target: SARS-CoV-2 Gamma
[6] = biological target: SARS-CoV-2 Lambda (SARS-CoV-2 Lambda)
Bat CoV BANAL-52 [7] = biological target: Bat CoV BANAL-52
SARS-CoV-2 Mu [8] = biological target: SARS-CoV-2 Mu
SARS-CoV-1 [9] = biological target: SARS-CoV-1
[10] = biological target: SARS-CoV-2 Lambda (SARS-CoV-2 Lambda); remark: listed apart in the source
Bat CoV BANAL-52 [11] = biological target: Bat CoV BANAL-52; remark: listed apart in the source
SARS-CoV-2 Mu [12] = biological target: SARS-CoV-2 Mu; remark: listed apart in the source
SARS-CoV-1 [13] = biological target: SARS-CoV-1; remark: listed apart in the source
[14] = biological target: Bat CoV WIV-1 (SC1r-CoV WIV-1)
[15] = biological target: Bat CoV Rs2018B (SC1r-CoV Rs2018B)
[16] = biological target: Bat CoV RsSHC014 (SC1r-CoV RsSHC014)
SARS-CoV-2 Gamma [17] = biological target: SARS-CoV-2 Gamma; remark: listed apart in the source

What does the source list for CR3022 (antibody)?
Binding SARS-CoV-1 [1]: 1.19; Binding SARS-CoV-2 [2]: 1.46; sVNT SARS-CoV-1 (% I) [3]: 32.5%; sVNT SARS-CoV-2 (% I) [4]: 24.2%

How did the Binding SARS-CoV-1 [1] turn out when S309 (Sotrovimab, GSK) (antibody) was run?
Its Binding SARS-CoV-1 is 1.22.

What about the Binding SARS-CoV-2 [2] of the same substance?
The Binding SARS-CoV-2 was 1.55.

And the sVNT SARS-CoV-1 (% I) [3]?
The sVNT SARS-CoV-1 (% I) was 36.5%.

And the sVNT SARS-CoV-2 (% I) [4]?
The sVNT SARS-CoV-2 (% I) was 39.6%.

Which results are given for S2X259 (VirBiotech) (antibody)?
Binding SARS-CoV-1 [1]: 0.973; Binding SARS-CoV-2 [2]: 1.73; sVNT SARS-CoV-1 (% I) [3]: 92.8%; sVNT SARS-CoV-2 (% I) [4]: 94%

Which results are given for S309?
IC50 (SARS-CoV-2 Delta Plus): 0.24 mg/L; IC50 (SARS-CoV-2 Gamma [5]): 0.172 mg/L; IC50 (SARS-CoV-2 Delta): 0.199 mg/L

For LyCoV-1404 (Eli Lily) (antibody), which Binding SARS-CoV-1 [1] is on record?
Its Binding SARS-CoV-1 is 1.54.

What about the Binding SARS-CoV-2 [2] of the same substance?
Its Binding SARS-CoV-2 is 0.445.

And the sVNT SARS-CoV-1 (% I) [3]?
The sVNT SARS-CoV-1 (% I) was 94.5%.

What about the sVNT SARS-CoV-2 (% I) [4] of the same substance?
Its sVNT SARS-CoV-2 (% I) is 0.144%.

How did the IC50 [6] turn out when LyCoV-1404 was run?
Its IC50 is 0.077 mg/L.

And the IC50 (Bat CoV BANAL-52 [7])?
Its IC50 is 0.12 mg/L.

What about the IC50 (SARS-CoV-2 Mu [8]) of the same substance?
The IC50 was 0.067 mg/L.

Which IC50 (SARS-CoV-1 [9]) does the source give for CR3022 here?
The IC50 was 0.397 mg/L.

What does the source list for S2X259?
IC50 [10]: 0.047 mg/L; IC50 (Pangolin CoV GD-1): 0.112 mg/L; IC50 (Bat CoV BANAL-52 [11]): 0.097 mg/L; IC50 (SARS-CoV-2 Mu [12]): 0.067 mg/L; IC50 (SARS-CoV-1 [13]): 0.871 mg/L; IC50 [14]: 0.117 mg/L; IC50 [15]: 0.142 mg/L; IC50 [16]: 0.133 mg/L; IC50 (SARS-CoV-2 Gamma [17]): 0.102 mg/L; IC50 (Bat CoV LYRa11): 0.073 mg/L
